Here are results for 1 molecule from paper PMC10123104, “YbiB: a novel interactor of the GTPase ObgE”.

In one data set the target is T1, YbiB Arg123Glu (Escherichia coli BW25113, UniProt P30177 1-320, R123E).
T1 sequence: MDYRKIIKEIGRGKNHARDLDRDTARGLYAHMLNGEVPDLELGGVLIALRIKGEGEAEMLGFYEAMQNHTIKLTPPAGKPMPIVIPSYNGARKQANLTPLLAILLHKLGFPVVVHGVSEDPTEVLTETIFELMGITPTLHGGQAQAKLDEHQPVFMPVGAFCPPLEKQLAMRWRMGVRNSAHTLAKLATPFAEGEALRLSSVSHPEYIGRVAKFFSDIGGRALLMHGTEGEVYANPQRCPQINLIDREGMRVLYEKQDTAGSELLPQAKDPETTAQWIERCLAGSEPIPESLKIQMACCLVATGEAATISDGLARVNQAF
Briefly: EMSA; EMSA: 20 mM HEPES pH 7.5, 150 mM NaCl, 5 mM MgCl2, 2 mM DTT, 5% glycerol, 30 min at 37 C; 6% PAGE in 1x TBE at room temperature. The settings on record: protein: recombinant; tags: N-terminal His6, thrombin site (pET28a); chain copies: 2; label: 5'-32P; single strand.

In another data set the target is T2, YbiB Arg92Glu (Escherichia coli BW25113, UniProt P30177 1-320, R92E).
T2 sequence: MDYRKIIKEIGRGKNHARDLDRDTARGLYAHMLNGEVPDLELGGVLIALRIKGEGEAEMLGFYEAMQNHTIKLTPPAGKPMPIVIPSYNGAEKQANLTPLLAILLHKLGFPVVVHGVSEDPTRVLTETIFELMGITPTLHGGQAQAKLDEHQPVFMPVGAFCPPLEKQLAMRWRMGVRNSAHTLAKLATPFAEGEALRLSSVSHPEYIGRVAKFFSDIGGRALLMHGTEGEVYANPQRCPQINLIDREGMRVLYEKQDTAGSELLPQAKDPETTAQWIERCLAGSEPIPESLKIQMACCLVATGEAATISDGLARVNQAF
The description is as above. The settings on record: protein: recombinant; tags: N-terminal His6, thrombin site (pET28a); chain copies: 2; label: 5'-32P; single strand.

Where only a bound is given, the exact number is not on record here.

B1: EMSA_probe (58-nt ssDNA) (ssDNA)
DNA: GCTTTTGATGTACCAATGCATCACCATCACCATCAGGAAATGGGTAAGATGCTTGTAG
In the case of B1, the binding signal in the data set with YbiB Arg123Glu and with YbiB Arg92Glu was > 10 fold higher apparent KD than WT in each case.
